Assay results reported in patent US10087225B2, “Formulation of MK2 inhibitor peptides” (MOERAE MATRIX, INC., priority 2015, dated 2018).

What was measured:
Assay in all cases: Kinase Profiling Assay
Assay type in all cases: biochemical
Settings in all cases: for % activity: 100 μM
GCK(h) = target: T1, GCK(h) (Homo sapiens, UniProt Q12851)
T1 sequence (Q12851 1-820): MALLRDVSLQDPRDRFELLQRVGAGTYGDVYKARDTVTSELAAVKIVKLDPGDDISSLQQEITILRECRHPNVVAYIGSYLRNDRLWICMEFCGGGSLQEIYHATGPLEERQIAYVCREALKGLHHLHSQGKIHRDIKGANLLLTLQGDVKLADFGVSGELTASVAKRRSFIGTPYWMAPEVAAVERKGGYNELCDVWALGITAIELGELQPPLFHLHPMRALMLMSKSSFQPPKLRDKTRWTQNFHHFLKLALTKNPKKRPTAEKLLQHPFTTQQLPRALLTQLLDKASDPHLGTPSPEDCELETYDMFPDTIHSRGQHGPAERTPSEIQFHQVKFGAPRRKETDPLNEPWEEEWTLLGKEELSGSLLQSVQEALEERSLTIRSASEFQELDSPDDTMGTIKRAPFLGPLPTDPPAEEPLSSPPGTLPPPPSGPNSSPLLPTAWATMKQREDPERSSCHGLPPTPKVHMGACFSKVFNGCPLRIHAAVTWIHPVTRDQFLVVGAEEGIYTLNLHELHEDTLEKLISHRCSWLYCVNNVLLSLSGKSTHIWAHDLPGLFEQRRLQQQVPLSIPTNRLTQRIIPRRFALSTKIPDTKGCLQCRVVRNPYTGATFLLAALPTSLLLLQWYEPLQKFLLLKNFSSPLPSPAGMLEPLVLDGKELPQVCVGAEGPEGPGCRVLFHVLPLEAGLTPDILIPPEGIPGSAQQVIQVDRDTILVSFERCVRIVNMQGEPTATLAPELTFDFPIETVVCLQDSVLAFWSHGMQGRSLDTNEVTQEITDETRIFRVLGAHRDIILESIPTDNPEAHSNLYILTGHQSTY

Ab1(T315I)(h) = Ab1(T315I)(h) (Homo sapiens, UniProt P00519, T315I)
ErbB4(h) = ErbB4(h) (Homo sapiens, UniProt Q15303)
cSRC(h) = cSRC(h) (Homo sapiens, UniProt P12931)
SAPK2a(T106M)(h) = SAPK2a(T106M)(h) (Homo sapiens, UniProt Q16539, T106M)
WNK2(h) = WNK2(h) (Homo sapiens, UniProt Q9Y3S1)
TAO2(h) = target: T2, TAO2(h) (Homo sapiens, UniProt Q9UL54)
T2 sequence (Q9UL54 1-1235): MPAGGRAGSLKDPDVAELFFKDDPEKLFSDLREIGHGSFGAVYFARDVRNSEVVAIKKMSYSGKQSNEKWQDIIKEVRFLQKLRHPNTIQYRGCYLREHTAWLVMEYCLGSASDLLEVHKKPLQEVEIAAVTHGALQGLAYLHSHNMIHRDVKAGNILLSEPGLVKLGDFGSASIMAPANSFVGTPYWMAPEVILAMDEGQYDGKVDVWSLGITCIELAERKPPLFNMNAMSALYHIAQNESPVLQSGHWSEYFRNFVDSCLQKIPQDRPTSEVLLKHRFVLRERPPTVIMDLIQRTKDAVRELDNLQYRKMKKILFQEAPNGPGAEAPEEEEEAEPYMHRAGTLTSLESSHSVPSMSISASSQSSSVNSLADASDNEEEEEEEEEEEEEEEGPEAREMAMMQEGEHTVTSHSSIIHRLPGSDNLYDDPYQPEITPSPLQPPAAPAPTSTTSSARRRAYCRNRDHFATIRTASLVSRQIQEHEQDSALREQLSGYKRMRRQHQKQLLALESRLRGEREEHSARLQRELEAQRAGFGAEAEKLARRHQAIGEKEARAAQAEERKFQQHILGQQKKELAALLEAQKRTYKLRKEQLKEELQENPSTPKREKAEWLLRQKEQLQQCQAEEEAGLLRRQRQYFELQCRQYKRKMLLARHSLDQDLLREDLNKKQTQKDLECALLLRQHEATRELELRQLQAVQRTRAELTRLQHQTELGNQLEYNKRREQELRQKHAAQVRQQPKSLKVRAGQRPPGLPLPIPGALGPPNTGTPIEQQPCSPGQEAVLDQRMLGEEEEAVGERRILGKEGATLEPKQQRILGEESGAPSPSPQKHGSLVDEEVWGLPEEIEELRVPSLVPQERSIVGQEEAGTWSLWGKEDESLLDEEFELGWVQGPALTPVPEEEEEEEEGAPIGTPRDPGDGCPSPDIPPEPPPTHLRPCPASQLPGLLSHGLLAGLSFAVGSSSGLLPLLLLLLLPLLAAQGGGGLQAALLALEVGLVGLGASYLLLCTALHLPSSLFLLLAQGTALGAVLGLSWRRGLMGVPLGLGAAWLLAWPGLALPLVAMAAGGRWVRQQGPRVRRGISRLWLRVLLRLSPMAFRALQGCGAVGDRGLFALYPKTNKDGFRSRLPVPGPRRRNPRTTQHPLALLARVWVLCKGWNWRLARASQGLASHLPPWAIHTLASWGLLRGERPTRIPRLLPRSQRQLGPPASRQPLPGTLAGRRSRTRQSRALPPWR

MAPKAP-K3(h) = MAPKAP-K3(h) (Homo sapiens, UniProt Q16644)
Chain of MAPKAP-K3(h) (Q16644 whole entry): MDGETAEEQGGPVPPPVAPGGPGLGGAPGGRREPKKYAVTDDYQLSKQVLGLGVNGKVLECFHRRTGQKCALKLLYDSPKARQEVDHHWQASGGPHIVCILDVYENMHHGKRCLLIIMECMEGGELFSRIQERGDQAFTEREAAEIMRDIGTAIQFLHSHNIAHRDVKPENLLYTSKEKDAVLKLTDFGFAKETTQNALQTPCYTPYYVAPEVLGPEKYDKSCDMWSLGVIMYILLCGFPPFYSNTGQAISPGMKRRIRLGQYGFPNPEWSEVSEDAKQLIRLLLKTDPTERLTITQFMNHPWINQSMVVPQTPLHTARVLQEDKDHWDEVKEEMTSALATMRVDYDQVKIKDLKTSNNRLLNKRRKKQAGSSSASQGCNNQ

Chain of ErbB4(h) (Q15303 26-1308): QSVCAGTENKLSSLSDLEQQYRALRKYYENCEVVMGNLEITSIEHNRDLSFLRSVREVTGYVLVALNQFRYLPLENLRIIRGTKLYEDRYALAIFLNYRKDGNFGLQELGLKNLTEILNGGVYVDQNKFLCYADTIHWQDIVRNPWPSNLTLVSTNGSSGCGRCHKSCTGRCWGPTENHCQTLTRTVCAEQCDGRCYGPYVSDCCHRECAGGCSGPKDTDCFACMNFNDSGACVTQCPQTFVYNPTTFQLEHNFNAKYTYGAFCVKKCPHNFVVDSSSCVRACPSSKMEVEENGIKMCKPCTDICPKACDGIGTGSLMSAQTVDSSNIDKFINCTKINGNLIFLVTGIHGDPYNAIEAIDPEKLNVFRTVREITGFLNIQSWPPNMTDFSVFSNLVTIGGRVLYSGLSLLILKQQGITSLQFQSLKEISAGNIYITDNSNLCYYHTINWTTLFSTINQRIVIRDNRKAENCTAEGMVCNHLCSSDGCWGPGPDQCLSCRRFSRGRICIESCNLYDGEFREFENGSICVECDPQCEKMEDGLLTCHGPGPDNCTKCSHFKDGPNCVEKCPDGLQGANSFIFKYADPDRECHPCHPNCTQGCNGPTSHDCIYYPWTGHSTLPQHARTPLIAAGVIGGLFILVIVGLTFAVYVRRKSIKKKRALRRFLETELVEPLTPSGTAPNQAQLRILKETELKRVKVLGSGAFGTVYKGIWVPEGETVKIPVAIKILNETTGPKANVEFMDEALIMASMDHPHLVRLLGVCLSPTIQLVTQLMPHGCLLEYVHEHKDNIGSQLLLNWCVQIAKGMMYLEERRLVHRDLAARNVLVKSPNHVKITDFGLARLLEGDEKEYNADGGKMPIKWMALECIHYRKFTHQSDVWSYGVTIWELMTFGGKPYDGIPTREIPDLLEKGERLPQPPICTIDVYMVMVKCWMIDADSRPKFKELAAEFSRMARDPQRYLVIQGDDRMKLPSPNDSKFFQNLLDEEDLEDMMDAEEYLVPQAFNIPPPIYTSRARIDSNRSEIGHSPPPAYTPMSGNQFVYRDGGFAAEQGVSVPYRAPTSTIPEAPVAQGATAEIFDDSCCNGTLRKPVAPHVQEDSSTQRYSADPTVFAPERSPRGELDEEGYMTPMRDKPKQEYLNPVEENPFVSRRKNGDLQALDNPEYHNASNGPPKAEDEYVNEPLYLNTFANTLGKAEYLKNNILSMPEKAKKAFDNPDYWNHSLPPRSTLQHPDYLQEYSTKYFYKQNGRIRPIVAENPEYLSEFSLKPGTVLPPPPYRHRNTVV
Chain of SAPK2a(T106M)(h) (Q16539 whole entry T106M): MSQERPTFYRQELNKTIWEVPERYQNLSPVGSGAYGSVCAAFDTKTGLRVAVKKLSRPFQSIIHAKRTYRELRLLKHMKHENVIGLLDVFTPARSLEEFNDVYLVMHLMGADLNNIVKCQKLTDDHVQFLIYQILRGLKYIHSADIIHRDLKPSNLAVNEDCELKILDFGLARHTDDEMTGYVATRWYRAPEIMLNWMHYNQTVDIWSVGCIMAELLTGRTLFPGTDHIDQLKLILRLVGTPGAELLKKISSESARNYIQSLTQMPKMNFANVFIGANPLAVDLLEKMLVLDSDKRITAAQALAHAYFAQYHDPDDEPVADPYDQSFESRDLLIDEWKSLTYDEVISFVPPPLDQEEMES
Chain of WNK2(h) (Q9Y3S1 whole entry): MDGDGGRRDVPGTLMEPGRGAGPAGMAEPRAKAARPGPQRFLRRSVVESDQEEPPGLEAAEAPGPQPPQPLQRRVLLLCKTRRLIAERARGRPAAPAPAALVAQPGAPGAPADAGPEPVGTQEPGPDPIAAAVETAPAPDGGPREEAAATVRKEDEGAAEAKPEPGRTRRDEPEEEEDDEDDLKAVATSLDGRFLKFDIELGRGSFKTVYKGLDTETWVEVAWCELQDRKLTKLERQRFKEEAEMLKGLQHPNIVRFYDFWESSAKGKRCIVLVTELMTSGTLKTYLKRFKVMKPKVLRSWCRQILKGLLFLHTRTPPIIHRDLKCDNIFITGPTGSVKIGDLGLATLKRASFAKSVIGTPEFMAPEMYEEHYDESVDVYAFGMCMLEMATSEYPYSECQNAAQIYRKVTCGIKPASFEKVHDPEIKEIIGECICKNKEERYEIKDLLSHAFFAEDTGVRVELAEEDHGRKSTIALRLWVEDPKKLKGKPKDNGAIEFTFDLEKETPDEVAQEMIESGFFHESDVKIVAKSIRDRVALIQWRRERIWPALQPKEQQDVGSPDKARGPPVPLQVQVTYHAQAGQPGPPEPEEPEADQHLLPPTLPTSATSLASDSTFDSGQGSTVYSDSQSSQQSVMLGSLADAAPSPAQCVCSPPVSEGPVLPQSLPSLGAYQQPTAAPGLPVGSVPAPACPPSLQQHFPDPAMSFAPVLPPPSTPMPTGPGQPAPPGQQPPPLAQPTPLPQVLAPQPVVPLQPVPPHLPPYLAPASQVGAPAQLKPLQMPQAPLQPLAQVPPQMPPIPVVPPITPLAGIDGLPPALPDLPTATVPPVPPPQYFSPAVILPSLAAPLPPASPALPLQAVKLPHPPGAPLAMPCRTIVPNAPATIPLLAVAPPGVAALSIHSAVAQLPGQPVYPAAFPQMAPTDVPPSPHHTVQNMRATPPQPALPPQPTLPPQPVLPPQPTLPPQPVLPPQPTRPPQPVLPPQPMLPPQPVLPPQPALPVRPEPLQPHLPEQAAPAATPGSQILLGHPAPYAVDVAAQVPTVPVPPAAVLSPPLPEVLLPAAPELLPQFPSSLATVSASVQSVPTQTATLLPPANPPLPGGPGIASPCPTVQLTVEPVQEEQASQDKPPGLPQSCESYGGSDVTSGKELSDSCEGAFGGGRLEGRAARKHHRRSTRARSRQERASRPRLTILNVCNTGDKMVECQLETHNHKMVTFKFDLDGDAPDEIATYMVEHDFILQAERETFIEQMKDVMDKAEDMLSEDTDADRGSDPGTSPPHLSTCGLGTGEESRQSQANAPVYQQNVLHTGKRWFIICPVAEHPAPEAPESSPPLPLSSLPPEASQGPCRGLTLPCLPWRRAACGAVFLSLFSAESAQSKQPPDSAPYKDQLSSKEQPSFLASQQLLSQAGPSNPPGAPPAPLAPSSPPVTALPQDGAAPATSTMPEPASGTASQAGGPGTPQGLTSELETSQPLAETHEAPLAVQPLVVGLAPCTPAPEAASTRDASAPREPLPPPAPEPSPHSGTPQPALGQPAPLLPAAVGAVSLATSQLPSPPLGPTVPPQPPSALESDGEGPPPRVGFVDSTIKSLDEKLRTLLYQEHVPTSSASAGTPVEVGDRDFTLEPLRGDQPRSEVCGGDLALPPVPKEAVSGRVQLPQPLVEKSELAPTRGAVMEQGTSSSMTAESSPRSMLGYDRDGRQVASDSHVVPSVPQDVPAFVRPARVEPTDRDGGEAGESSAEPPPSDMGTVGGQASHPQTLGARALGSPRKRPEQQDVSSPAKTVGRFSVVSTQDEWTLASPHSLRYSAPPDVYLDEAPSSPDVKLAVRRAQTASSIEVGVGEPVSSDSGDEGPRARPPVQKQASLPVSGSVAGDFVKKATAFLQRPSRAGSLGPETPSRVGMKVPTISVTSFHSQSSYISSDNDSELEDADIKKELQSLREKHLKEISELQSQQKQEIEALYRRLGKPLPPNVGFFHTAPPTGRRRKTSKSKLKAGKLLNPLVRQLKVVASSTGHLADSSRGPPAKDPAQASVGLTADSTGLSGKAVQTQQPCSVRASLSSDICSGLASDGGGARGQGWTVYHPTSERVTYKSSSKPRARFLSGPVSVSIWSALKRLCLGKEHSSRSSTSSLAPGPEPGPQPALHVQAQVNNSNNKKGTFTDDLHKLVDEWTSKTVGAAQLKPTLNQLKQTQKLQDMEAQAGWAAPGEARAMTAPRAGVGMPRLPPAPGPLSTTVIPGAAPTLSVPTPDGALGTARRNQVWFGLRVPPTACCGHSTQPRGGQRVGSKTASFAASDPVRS

Row | Substance | activity at 100 µM (GCK(h)) | activity at 100 µM (Ab1(T315I)(h)) | activity at 100 µM (ErbB4(h)) | activity at 100 µM (cSRC(h)) | activity at 100 µM (SAPK2a(T106M)(h)) | activity at 100 µM (WNK2(h)) | activity at 100 µM (TAO2(h)) | activity at 100 µM (MAPKAP-K3(h)) | % activity (GCK(h)) | % activity (Ab1(T315I)(h)) | % activity (ErbB4(h)) | % activity (cSRC(h)) | % activity (SAPK2a(T106M)(h)) | % activity (WNK2(h)) | % activity (TAO2(h)) | % activity (MAPKAP-K3(h))
1 | H-YARAAARQARAKALARQLGVAA-OH [MMI-0100] | 98% | 98% | 73% | 70% | 101% | 95% | 95% | 27% |  |  |  |  |  |  |  | 
2 | HRRIKAWLKKIKALARQLGVAA (Mammalian) [MMI-0500] |  |  |  |  |  |  |  |  | 30% | 16% | 2% | 30% | 32% | 8% | 15% | 9%
3 | YARAAARQARAKALNRQLGVA (Mammalian) [MMI-0200] |  |  |  |  |  |  |  |  | 99% | 108% | 82% | 32% | 100% | 94% | 93% | 39%
